Measured values reported in IntAct's records for PubMed 24114786.

Assays:
[1] = target: flica_pseai fliC (UniProt P21184)
[2] = target: bak1_arath BAK1 (UniProt Q94F62)
Chain of bak1_arath BAK1 (Q94F62 whole entry): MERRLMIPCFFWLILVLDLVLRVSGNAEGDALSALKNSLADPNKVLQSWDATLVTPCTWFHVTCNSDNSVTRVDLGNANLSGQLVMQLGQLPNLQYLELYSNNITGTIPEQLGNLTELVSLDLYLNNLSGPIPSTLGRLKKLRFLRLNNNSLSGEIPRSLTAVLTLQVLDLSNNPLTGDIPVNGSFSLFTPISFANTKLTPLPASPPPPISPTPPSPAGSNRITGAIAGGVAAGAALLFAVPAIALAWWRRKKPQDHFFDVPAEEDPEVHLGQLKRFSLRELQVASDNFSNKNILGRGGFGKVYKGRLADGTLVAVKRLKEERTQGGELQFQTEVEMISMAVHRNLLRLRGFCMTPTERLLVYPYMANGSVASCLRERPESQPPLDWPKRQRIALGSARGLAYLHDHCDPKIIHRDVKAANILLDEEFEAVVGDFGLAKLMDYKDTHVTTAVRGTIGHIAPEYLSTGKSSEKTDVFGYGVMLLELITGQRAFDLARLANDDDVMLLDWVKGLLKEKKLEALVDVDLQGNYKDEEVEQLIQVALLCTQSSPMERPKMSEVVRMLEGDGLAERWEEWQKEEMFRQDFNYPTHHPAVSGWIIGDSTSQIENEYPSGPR

Chain of flica_pseai fliC (P21184 whole entry): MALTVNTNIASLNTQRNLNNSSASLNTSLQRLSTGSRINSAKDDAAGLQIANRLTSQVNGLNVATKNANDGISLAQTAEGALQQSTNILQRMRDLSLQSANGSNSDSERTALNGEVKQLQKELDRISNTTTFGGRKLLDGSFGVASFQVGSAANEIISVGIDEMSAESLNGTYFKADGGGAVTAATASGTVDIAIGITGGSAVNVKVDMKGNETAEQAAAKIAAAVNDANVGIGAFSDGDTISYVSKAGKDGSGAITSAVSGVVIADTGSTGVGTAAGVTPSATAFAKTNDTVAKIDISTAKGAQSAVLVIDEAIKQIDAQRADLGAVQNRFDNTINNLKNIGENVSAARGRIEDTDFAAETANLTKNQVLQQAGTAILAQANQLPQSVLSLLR
Chain of LRR receptor-like serine/threonine-protein kinase FLS2 (Arabidopsis thaliana (Mouse-ear cress)), Q9FL28 T342Y (Q9FL28 whole entry T342Y): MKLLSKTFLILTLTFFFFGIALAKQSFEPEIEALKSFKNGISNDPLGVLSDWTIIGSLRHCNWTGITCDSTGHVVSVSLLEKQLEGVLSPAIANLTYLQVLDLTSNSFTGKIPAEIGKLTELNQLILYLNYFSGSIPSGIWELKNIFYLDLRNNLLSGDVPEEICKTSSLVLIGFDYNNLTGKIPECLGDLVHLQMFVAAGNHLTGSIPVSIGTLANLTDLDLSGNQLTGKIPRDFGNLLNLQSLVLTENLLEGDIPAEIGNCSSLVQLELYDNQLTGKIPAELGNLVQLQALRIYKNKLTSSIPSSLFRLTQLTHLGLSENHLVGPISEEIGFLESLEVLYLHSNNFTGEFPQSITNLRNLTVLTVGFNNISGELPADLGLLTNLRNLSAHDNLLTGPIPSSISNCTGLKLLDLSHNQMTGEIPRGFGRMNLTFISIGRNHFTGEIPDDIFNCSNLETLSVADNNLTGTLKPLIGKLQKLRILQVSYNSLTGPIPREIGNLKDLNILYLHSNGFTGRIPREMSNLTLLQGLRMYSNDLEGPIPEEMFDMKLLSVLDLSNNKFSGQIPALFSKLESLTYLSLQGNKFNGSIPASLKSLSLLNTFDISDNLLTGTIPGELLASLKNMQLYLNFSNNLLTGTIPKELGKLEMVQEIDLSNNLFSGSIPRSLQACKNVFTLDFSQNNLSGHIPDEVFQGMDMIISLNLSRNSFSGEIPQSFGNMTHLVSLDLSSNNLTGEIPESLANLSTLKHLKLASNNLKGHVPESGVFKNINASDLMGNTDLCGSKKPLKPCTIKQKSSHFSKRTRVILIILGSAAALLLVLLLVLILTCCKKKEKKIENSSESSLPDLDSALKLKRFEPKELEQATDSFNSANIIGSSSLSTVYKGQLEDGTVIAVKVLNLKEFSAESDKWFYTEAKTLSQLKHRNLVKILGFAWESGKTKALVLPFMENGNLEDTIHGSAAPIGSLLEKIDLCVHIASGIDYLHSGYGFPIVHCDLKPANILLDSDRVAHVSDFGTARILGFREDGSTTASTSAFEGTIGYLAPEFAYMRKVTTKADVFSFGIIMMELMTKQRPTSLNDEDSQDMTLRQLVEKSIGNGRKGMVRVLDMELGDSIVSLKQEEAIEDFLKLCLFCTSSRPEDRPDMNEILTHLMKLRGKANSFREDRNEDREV
Chain of LRR receptor-like serine/threonine-protein kinase FLS2 (Arabidopsis thaliana (Mouse-ear cress)), Q9FL28 D414A (Q9FL28 whole entry D414A): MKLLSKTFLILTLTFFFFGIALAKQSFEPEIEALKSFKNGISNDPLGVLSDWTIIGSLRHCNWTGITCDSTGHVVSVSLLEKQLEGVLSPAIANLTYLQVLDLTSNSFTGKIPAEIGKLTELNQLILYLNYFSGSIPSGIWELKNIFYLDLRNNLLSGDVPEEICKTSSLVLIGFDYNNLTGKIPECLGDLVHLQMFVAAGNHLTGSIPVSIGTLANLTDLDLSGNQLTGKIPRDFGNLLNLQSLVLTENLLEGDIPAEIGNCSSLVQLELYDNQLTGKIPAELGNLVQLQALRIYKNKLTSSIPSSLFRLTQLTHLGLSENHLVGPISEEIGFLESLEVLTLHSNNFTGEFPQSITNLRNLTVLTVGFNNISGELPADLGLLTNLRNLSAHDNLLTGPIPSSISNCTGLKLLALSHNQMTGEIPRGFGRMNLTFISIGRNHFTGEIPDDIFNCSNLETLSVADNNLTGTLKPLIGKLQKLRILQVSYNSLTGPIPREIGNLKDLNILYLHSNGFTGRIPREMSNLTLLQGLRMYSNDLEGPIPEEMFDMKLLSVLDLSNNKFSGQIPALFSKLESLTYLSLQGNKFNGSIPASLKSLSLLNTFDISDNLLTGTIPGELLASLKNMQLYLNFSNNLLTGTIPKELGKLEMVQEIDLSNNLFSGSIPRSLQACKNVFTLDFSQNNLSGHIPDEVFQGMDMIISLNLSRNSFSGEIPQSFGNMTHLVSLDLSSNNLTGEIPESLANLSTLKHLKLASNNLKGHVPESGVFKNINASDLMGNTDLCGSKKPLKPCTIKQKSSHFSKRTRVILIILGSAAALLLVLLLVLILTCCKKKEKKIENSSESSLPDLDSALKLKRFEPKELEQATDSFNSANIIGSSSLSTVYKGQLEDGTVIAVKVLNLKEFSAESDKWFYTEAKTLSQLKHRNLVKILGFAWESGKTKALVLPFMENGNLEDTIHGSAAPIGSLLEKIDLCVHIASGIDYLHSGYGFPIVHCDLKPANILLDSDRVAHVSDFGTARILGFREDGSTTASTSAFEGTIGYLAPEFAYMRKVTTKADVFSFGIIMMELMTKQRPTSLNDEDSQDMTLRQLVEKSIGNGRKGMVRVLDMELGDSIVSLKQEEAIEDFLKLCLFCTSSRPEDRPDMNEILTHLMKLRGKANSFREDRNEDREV
Chain of LRR receptor-like serine/threonine-protein kinase FLS2 (Arabidopsis thaliana (Mouse-ear cress)), Q9FL28 R294A;H316A (Q9FL28 whole entry R294A/H316A): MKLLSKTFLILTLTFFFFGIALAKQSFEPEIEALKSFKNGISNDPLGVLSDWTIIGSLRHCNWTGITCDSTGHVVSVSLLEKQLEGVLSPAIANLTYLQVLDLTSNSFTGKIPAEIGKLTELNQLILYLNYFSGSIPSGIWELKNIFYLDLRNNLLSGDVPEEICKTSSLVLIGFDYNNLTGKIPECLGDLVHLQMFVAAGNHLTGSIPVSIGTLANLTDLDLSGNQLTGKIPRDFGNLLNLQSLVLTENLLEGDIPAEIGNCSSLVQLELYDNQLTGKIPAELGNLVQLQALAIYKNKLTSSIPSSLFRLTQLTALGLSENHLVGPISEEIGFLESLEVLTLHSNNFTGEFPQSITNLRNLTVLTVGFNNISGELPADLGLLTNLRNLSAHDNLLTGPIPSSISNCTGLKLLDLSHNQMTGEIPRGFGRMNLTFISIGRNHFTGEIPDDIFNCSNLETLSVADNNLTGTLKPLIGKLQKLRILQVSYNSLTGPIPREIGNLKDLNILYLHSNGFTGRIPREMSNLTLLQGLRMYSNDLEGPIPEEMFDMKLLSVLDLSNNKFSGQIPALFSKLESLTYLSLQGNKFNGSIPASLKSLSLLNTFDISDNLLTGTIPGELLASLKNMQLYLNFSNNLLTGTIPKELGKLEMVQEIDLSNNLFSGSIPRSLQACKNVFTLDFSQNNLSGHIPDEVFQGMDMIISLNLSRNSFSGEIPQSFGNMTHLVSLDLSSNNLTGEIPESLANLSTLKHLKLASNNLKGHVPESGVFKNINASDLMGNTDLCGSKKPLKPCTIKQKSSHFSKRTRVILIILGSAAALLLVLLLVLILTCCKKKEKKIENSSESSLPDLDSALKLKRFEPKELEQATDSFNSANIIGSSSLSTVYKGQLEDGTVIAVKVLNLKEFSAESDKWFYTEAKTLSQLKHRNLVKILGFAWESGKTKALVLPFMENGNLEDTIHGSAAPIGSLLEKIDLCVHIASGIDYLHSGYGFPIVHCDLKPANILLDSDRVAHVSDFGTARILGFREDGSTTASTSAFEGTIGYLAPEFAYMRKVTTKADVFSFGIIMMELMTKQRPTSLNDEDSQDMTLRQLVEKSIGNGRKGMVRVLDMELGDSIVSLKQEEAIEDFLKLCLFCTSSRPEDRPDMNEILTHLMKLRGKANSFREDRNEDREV

| Substance | effect of a mutation on the interaction [1] | effect of a mutation on the interaction [2] |
| --- | --- | --- |
| LRR receptor-like serine/threonine-protein kinase FLS2 (Arabidopsis thaliana (Mouse-ear cress)), Q9FL28 D414A | decreasing interaction strength | decreasing interaction strength |
| LRR receptor-like serine/threonine-protein kinase FLS2 (Arabidopsis thaliana (Mouse-ear cress)), Q9FL28 R294A;H316A | disrupting interaction strength | disrupting interaction strength |
| LRR receptor-like serine/threonine-protein kinase FLS2 (Arabidopsis thaliana (Mouse-ear cress)), Q9FL28 S437Y | decreasing interaction strength | decreasing interaction strength |
| LRR receptor-like serine/threonine-protein kinase FLS2 (Arabidopsis thaliana (Mouse-ear cress)), Q9FL28 T342Y | disrupting interaction strength | disrupting interaction strength |
